This note sets out measurements from article PMC10656227.

Assay [1] has as its target collagen IV NC1 domains of the NC1 hexamer from American lobster (American lobster (Homarus americanus)). Description: SDS-PAGE (SDS resistance of the native hexamer); straight collagenase digest of tissue or animals; regular SDS-PAGE without Cl^− supplement; sample at room temperature; Western blot with JK2. For orientation: In western blotting, separated proteins are transferred to a membrane and probed.

Assay [2] shares this target. Description: SDS-PAGE (SDS resistance of the native hexamer); straight collagenase digest of tissue or animals; SDS-PAGE with 150 mM NaCl; sample at room temperature; Western blot with JK2.
The target in assay [3] is collagen IV NC1 domains of the NC1 hexamer from Ascaris suum (Ascaris suum). Nature of the assay: SDS-PAGE (SDS resistance of the native hexamer); purified NC1 hexamer; Tris-glycine SDS-PAGE with 150 mM NaCl in running buffer and sample buffer; sample at room temperature, not boiled; Coomassie, TCE or Western blot.
For assay [4] the target is unchanged. Nature of the assay: SDS-PAGE (SDS resistance of the native hexamer); purified NC1 hexamer; regular SDS-PAGE without Cl^− supplement; sample at room temperature, not boiled; Coomassie, TCE or Western blot.
Assay [5] has as its target collagen IV NC1 domains of the NC1 hexamer from Caenorhabditis elegans (Caenorhabditis elegans). Description: SDS-PAGE (SDS resistance of the native hexamer); partially purified NC1 hexamer (SEC hexamer fraction); SDS-PAGE with 150 mM NaCl; sample at room temperature; Western blot with JK2 or TCE in-gel visualization.
For assay [6] the target is unchanged. Description: SDS-PAGE (SDS resistance of the native hexamer); partially purified NC1 hexamer (SEC hexamer fraction); regular SDS-PAGE without Cl^− supplement; sample at room temperature; Western blot with JK2 or TCE in-gel visualization.
In assay [7] the target is collagen IV NC1 domains of the NC1 hexamer from bovine kidney (cow (Bos taurus)). Description: SDS-PAGE (SDS resistance of the native hexamer); purified NC1 hexamer; Tris-glycine SDS-PAGE with 150 mM NaCl in running buffer and sample buffer; sample at room temperature, not boiled; Coomassie, TCE or Western blot.
The target in assay [8] is collagen IV NC1 domains of the NC1 hexamer from brine shrimp (brine shrimp (Artemia salina)). Description: SDS-PAGE (SDS resistance of the native hexamer); straight collagenase digest of tissue or animals; regular SDS-PAGE without Cl^− supplement; sample at room temperature; Western blot with JK2.
For assay [9] the target is unchanged. Description: SDS-PAGE (SDS resistance of the native hexamer); straight collagenase digest of tissue or animals; SDS-PAGE with 150 mM NaCl; sample at room temperature; Western blot with JK2.
Assay [10] has as its target collagen IV NC1 domains of the NC1 hexamer from brown planaria (brown planaria (Dugesia tigrina)). Nature of the assay: SDS-PAGE (SDS resistance of the native hexamer); partially purified NC1 hexamer (SEC hexamer fraction); SDS-PAGE with 150 mM NaCl; sample at room temperature; Western blot with JK2 or TCE in-gel visualization.
Assay [11] has the same target. Description: SDS-PAGE (SDS resistance of the native hexamer); partially purified NC1 hexamer (SEC hexamer fraction); regular SDS-PAGE without Cl^− supplement; sample at room temperature; Western blot with JK2 or TCE in-gel visualization.
Assay [12] deals with collagen IV NC1 domains of the NC1 hexamer from cicada (cicada (Magicicada spp)). Description: SDS-PAGE (SDS resistance of the native hexamer); straight collagenase digest of tissue or animals; regular SDS-PAGE without Cl^− supplement; sample at room temperature; Western blot with JK2.
Assay [13] shares this target. Description: SDS-PAGE (SDS resistance of the native hexamer); straight collagenase digest of tissue or animals; SDS-PAGE with 150 mM NaCl; sample at room temperature; Western blot with JK2.
Assay [14] addresses collagen IV NC1 domains of the NC1 hexamer from comb jelly (comb jelly (Mnemiopsis leidyi)). Nature of the assay: SDS-PAGE (SDS resistance of the native hexamer); partially purified NC1 hexamer (SEC hexamer fraction); SDS-PAGE with 150 mM NaCl; sample at room temperature; Western blot with JK2 or TCE in-gel visualization.
Assay [15] shares this target. Nature of the assay: SDS-PAGE (SDS resistance of the native hexamer); partially purified NC1 hexamer (SEC hexamer fraction); regular SDS-PAGE without Cl^− supplement; sample at room temperature; Western blot with JK2 or TCE in-gel visualization.
In assay [16] the target is collagen IV NC1 domains of the NC1 hexamer from condylactis anemone (condylactis anemone (Condylactis gigantea)). Nature of the assay: SDS-PAGE (SDS resistance of the native hexamer); partially purified NC1 hexamer (SEC hexamer fraction); SDS-PAGE with 150 mM NaCl; sample at room temperature; Western blot with JK2 or TCE in-gel visualization.
Assay [17] concerns the target collagen IV NC1 domains of the NC1 hexamer from fruit fly (fruit fly (Drosophila melanogaster)). Description: SDS-PAGE (SDS resistance of the native hexamer); purified NC1 hexamer; Tris-glycine SDS-PAGE with 150 mM NaCl in running buffer and sample buffer; sample at room temperature, not boiled; Coomassie, TCE or Western blot.
Assay [18] shares this target. Description: SDS-PAGE (SDS resistance of the native hexamer); purified NC1 hexamer; regular SDS-PAGE without Cl^− supplement; sample at room temperature, not boiled; Coomassie, TCE or Western blot.
In assay [19] the target is collagen IV NC1 domains of the NC1 hexamer from horseshoe crab flatworm (horseshoe crab flatworm (Bdelloura candida)). Description: SDS-PAGE (SDS resistance of the native hexamer); partially purified NC1 hexamer (SEC hexamer fraction); SDS-PAGE with 150 mM NaCl; sample at room temperature; Western blot with JK2 or TCE in-gel visualization.
Assay [20] deals with collagen IV NC1 domains of the NC1 hexamer from marmoset kidney (common marmoset (Callithrix jacchus)). The description is as above.
Assay [21] concerns the target collagen IV NC1 domains of the NC1 hexamer from moon jellyfish (moon jellyfish (Aurelia aurita)). Described as above.
Assay [22] deals with collagen IV NC1 domains of the NC1 hexamer from mouse kidney (mouse (Mus musculus)). Nature of the assay: SDS-PAGE (SDS resistance of the native hexamer); straight collagenase digest of tissue or animals; SDS-PAGE with 150 mM NaCl; sample at room temperature; Western blot with JK2.
The target of assay [23] is collagen IV NC1 domains of the NC1 hexamer from rotifers (rotifer (Brachionus plicatilis)). Description: SDS-PAGE (SDS resistance of the native hexamer); partially purified NC1 hexamer (SEC hexamer fraction); SDS-PAGE with 150 mM NaCl; sample at room temperature; Western blot with JK2 or TCE in-gel visualization.
Assay [24] has the same target. Description: SDS-PAGE (SDS resistance of the native hexamer); partially purified NC1 hexamer (SEC hexamer fraction); regular SDS-PAGE without Cl^− supplement; sample at room temperature; Western blot with JK2 or TCE in-gel visualization.
Assay [25] deals with collagen IV NC1 domains of the NC1 hexamer from starlet sea anemone (starlet sea anemone (Nematostella vectensis)). Nature of the assay: SDS-PAGE (SDS resistance of the native hexamer); partially purified NC1 hexamer (SEC hexamer fraction); SDS-PAGE with 150 mM NaCl; sample at room temperature; Western blot with JK2 or TCE in-gel visualization.

For the substance “collagen IV NC1 domains of the NC1 hexamer from American lobster (domain or fragment)”, the stoichiometry N in assay [1] and in [2] was 6 in each case.

Regarding “collagen IV NC1 domains of the NC1 hexamer from Ascaris suum (domain or fragment)”, the stoichiometry N in assay [3] and in assay [4] was 6 throughout.

Take “collagen IV NC1 domains of the NC1 hexamer from Caenorhabditis elegans (domain or fragment)”: the stoichiometry N in [5] and in assay [6] was 6 each time.

“collagen IV NC1 domains of the NC1 hexamer from bovine kidney (domain or fragment)”: in assay [7], the stoichiometry N (commonly a count of units in the complex or per binding partner) is 6.

Regarding “collagen IV NC1 domains of the NC1 hexamer from brine shrimp (domain or fragment)”, the stoichiometry N in assay [8] and in assay [9] was 6 throughout.

Take “collagen IV NC1 domains of the NC1 hexamer from brown planaria (domain or fragment)”: the stoichiometry N in assay [10] and in assay [11] was 6 each time.

For the substance “collagen IV NC1 domains of the NC1 hexamer from cicada (domain or fragment)”, the stoichiometry N in [12] and in [13] was 6 each time.

Regarding “collagen IV NC1 domains of the NC1 hexamer from comb jelly (domain or fragment)”, the stoichiometry N in assay [14] and in assay [15] was 6 in each case.

Turning to “collagen IV NC1 domains of the NC1 hexamer from condylactis anemone (domain or fragment)”, the stoichiometry N in [16] was found to be 6.

As for “collagen IV NC1 domains of the NC1 hexamer from fruit fly (domain or fragment)”, the stoichiometry N in assay [17] and in assay [18] was 6 throughout.

The substance “collagen IV NC1 domains of the NC1 hexamer from horseshoe crab flatworm (domain or fragment)” displayed a stoichiometry N in assay [19] of 6.

“collagen IV NC1 domains of the NC1 hexamer from marmoset kidney (domain or fragment)”: in assay [20], the stoichiometry N amounted to 6.

As for “collagen IV NC1 domains of the NC1 hexamer from moon jellyfish (domain or fragment)”, the stoichiometry N in assay [21] is 6.

Take “collagen IV NC1 domains of the NC1 hexamer from mouse kidney (domain or fragment)”: the stoichiometry N in [22] was 6.

As to “collagen IV NC1 domains of the NC1 hexamer from rotifers (domain or fragment)”, the stoichiometry N in [23] and in assay [24] was 6 throughout.

“collagen IV NC1 domains of the NC1 hexamer from starlet sea anemone (domain or fragment)” had a stoichiometry N in [25] of 6.
